Assay results: patent US20230241243A1, “CARRIER PARTICLE-DRUG CONJUGATES, SELF-IMMOLATIVE LINKERS, AND USES THEREOF” (priority 2020, published 2023)

Assay: Drug-release assay of nanoparticle-conjugated linker-payloads under cleavage conditions (Cat-B, redox-responsive or pH-sensitive cleaving study), RP-HPLC
Format: in vitro ADME
Conditions: linker-payload conjugated to DBCO-functionalized silica nanoparticle, 37° C., 24 hours
Experimental: To assess the drug releasing profile of exemplary linker-drug conjugates, the linker-drug conjugates were each conjugated to a DBCO-functionalized ultrasmall silica nanoparticle via a click chemistry reaction between the azide groups on the linker-drug conjugate precursors and the dibenzocyclooctyne (DBCO) groups of the nanoparticles. The resulting drug-nanoparticle-conjugates were then incubated under the desired releasing conditions for release kinetics tests.
The amount of released drugs vs non-released drugs was measured using reverse phase HPLC by analyzing the area under curve (AUC) (FIG. 10A and FIG. 10B).
General Method: A Waters Xbridge Peptide BEH C18 column with 4.6 mm×50 mm dimensions, a particle size of 5 μm, and a pore size of 300 A was used (part number 186003622). Acetonitrile (VWR HiPerSolv Chromanorm, UHPLC Grade) was used as received without further preparation, […] trifluoroacetic acid in deionized water was prepared by adding 1 mL of trifluoroacetic acid (HPLC grade, Millipore-Sigma) into 999 mL 18.2 MΩ·cm deionized water that was generated using an IQ7000 Millipore deionized water system and passed through a 0.2 μm filter before use. The seal wash used for the system was composed of 90% 18.2 MΩ·cm deionized water and 10% methanol (HPLC grade, VWR). The injection needle was washed using a mixture of 25 vol % 18.2 MΩ·cm deionized water, 25 vol % acetonitrile, 25 vol % methanol, and 25 vol % 2-propanol. Samples were prepared in a concentration range of 0.25 to 2 μM and the injection volume ranges from 60 μL to 10 μL, respectively. Higher sample concentration can be used if detector signal is low. Vials used for all injections are fresh Waters Total Recovery vials with screw caps that have pre-slit PTFE septa (part number 186000385C).
Method for Protease-cleavable and Redox-responsive Linkers: Before any sample injections were started, the PDA lamp was turned on and allowed to warm up for at least 30 minutes. The system and column were equilibrated with 95% 0.01% TFA in deionized water, 5% acetonitrile for at least 10 minutes at a flow rate of 1.0 mL/min after the PDA lamp had warmed up. Two blank injections, with injection volumes of 10 μL containing only 18.2 MΩ·cm deionized water, were performed before the injection of any samples for analysis. The gradient used to elute protease-cleavable and redox-sensitive linkers conjugated to hybrid silica nanoparticles, and their components began at 95% 0.01% TFA in deionized water and 5% acetonitrile and linearly changed to 15% 0.01% TFA in deionized water, 85% acetonitrile over 8 minutes. Acetonitrile composition was increased to 95% over an additional minute and held at 95% for an additional 2 minutes to ensure that any strongly retained compounds are eluted. The composition of the solvent was then changed back to the starting composition of the gradient over an additional minute and allowed to equilibrate for 3 minutes before another injection began. Between sample injections a blank injection was run to ensure that no carryover occurred.
Method for pH-sensitive Linkers: Before any sample injections were started, the PDA lamp was turned on and allowed to warm up for at least 30 minutes. A gradient of pure deionized water and acetonitrile was used, all other consumables including column and vials were the same as for the method to purify Cat-B sensitive and redox-responsive linkers elaborated on above. Briefly the gradient composition began at 95% deionized water and 5% acetonitrile at a flow rate of 1.0 mL/min (not changed throughout the method). The composition was changed from this starting composition to 15% deionized water and 85% acetonitrile over a 12-minute period, during which the retained drug-linkers, released drug, free drug linker, and any other impurities eluted. At the 12-minute mark the composition was rapidly changed to 5% deionized water and 95% acetonitrile over the course of one minute. […]

SMILES | % of Payload Release in 24 Hours Under Cleavage Conditions
CCc1c2c(nc3ccc(OC(C(=O)OC)c4ccc(NC(=O)[C@H](CCCNC(N)=O)NC(=O)[C@@H](NC(=O)CCOCCOCCOCCOCCOCCOCCOCCOCCOCCN=[N+]=[N-])C(C)C)cc4)cc13)-c1cc3c(c(=O)n1C2)COC(=O)[C@]3(O)CC (stereo partly drawn) [Example 13-R isomer, Methyl 2-(4-((32S,35S)-1-azido-32-isopropyl-30,33-dioxo-35-(3-ureidopropyl)-3,6,9,12,15,18,21,24,27-nonaoxa-31,34-diazahexatriacontan-36-amido)phenyl)-2-(((S)-4,11-diethyl-4-hydroxy-3,14-dioxo-3,4,12,14-tetrahydro-1H-pyrano[3′,4′:6,7]indolizino[1,2-b]quinolin-9-yl)oxy)acetate] | + (‘+’ indicates 5-25% release)
CC[C@@]1(O)C(=O)OCc2c1cc1n(c2=O)Cc2c-1nc1cc(F)c(C)c3c1c2[C@@H](NC(=O)[C@@H](CCCNC(N)=O)NC(=O)[C@@H](NC(=O)CCOCCOCCOCCOCCOCCOCCOCCOCCOCCOCCOCCN=[N+]=[N-])C(C)C)CC3 [Example 50, 1-azido-N-((S)-1-(((R)-1-(((1S,9S)-9-ethyl-5-fluoro-9-hydroxy-4-methyl-10,13-dioxo-2,3,9,10,13,15-hexahydro-1H,12H-benzo[de]pyrano[3′,4′:6,7]indolizino[1,2-b]quinolin-1-yl)amino)-1-oxo-5-ureidopentan-2-yl)amino)-3-methyl-1-oxobutan-2-yl)-3,6,9,12,15,18,21,24,27,30,33-undecaoxahexatriacontan-36-amide] | + (‘+’ indicates 5-25% release)
CCc1c2c(nc3ccc(OCCCNC(=O)OCc4ccc(NC(=O)[C@H](CCCCN)NC(=O)[C@@H](NC(=O)CCOCCOCCOCCOCCOCCOCCOCCOCCOCCN=[N+]=[N-])C(C)C)cc4)cc13)-c1cc3c(c(=O)n1C2)COC(=O)[C@]3(O)CC [Example 31, 4-((32S,35S)-35-(4-aminobutyl)-1-azido-32-isopropyl-30,33-dioxo-3,6,9,12,15,18,21,24,27-nonaoxa-31,34-diazahexatriacontan-36-amido)benzyl (3-(((S)-4,11-diethyl-4-hydroxy-3,14-dioxo-3,4,12,14-tetrahydro-1H-pyrano[3′,4′:6,7]indolizino[1,2-b]quinolin-9-yl)oxy)propyl)carbamate] | + (‘+’ indicates 5-25% release)
CC[C@@]1(O)C(=O)OCc2c1cc1n(c2=O)Cc2c-1nc1cc(F)c(C)c3c1c2[C@@H](NC(=O)C(O)c1ccc(NC(=O)[C@H](CCCCN)NC(=O)[C@H](Cc2ccccc2)NC(=O)CCOCCOCCOCCOCCOCCOCCN=[N+]=[N-])cc1)CC3 (single isomer, unassigned) [Example 29-Peak 1] | +++ (‘+++’ indicates 51-75% release)
CCc1c2c(nc3ccc(OCCCNC(=O)OCc4ccc(SSC(C)(C)CNC(=O)CCOCCOCCOCCOCCOCCOCCOCCOCCOCCN=[N+]=[N-])cc4)cc13)-c1cc3c(c(=O)n1C2)COC(=O)[C@]3(O)CC [Example 59, 4-((1-azido-33-methyl-30-oxo-3,6,9,12,15,18,21,24,27-nonaoxa-31-azatetratriacontan-33-yl)disulfanyl)benzyl (S)-(3-((4,11-diethyl-4-hydroxy-3,14-dioxo-3,4,12,14-tetrahydro-1H-pyrano[3′,4′:6,7]indolizino[1,2-b]quinolin-9-yl)oxy)propyl)carbamate] | +++ (‘+++’ indicates 51-75% release)
CCc1c2c(nc3ccc(OCc4ccc(NC(=O)[C@H](CCCNC(N)=O)NC(=O)[C@@H](NC(=O)CCOCCOCCOCCOCCOCCN=[N+]=[N-])C(C)C)cc4)cc13)-c1cc3c(c(=O)n1C2)COC(=O)[C@]3(O)CC [Example 47, 1-azido-N-((S)-1-(((S)-1-((4-((((S)-4,11-diethyl-4-hydroxy-3,14-dioxo-3,4,12,14-tetrahydro-1H-pyrano[3′,4′:6,7]indolizino[1,2-b]quinolin-9-yl)oxy)methyl)phenyl)amino)-1-oxo-5-ureidopentan-2-yl)amino)-3-methyl-1-oxobutan-2-yl)-3,6,9,12,15-pentaoxaoctadecan-18-amide] | + (‘+’ indicates 5-25% release)
CCc1c2c(nc3ccc(OC(C(=O)N(C)C)c4ccc(NC(=O)[C@H](CCCNC(N)=O)NC(=O)[C@@H](NC(=O)CCOCCOCCOCCOCCOCCOCCOCCOCCOCCOCCOCCN=[N+]=[N-])C(C)C)cc4)cc13)-c1cc3c(c(=O)n1C2)COC(=O)[C@]3(O)CC (stereo partly drawn) [Example 20, 1-azido-N-((2S)-1-(((2S)-1-((4-(1-(((s)-4,11-diethyl-4-hydroxy-3,14-dioxo-3,4,12,14-tetrahydro-1H-pyrano[3′,4′:6,7]indolizino[1,2-b]quinolin-9-yl)oxy)-2-(dimethylamino)-2-oxoethyl)phenyl)amino)-1-oxo-5-ureidopentan-2-yl)amino)-3-methyl-1-oxobutan-2-yl)-3,6,9,12,15,18,21,24,27,30,33-undecaoxahexatriacontan-36-amide] | + (‘+’ indicates 5-25% release)
CCc1c2c(nc3ccc(OC(C(=O)OC)c4ccc(NC(=O)[C@H](CCCNC(N)=O)NC(=O)[C@@H](NC(=O)CCOCCOCCOCCOCCOCCOCCOCCOCCOCCOCCOCCN=[N+]=[N-])C(C)C)cc4)cc13)-c1cc3c(c(=O)n1C2)COC(=O)[C@]3(O)CC (stereo partly drawn) [Example 14-R isomer, Methyl 2-(4-((38S,41S)-1-azido-38-isopropyl-36,39-dioxo-41-(3-ureidopropyl)-3,6,9,12,15,18,21,24,27,30,33-undecaoxa-37,40-diazadotetracontan-42-amido)phenyl)-2-(((S)-4,11-diethyl-4-hydroxy-3,14-dioxo-3,4,12,14-tetrahydro-1H-pyrano[3′,4′:6,7]indolizino[1,2-b]quinolin-9-yl)oxy)acetate] | + (‘+’ indicates 5-25% release)
CC[C@@]1(O)C(=O)OCc2c1cc1n(c2=O)Cc2c-1nc1cc(F)c(C)c3c1c2[C@@H](NCc1c(F)cc(NC(=O)[C@H](CCCNC(N)=O)NC(=O)[C@@H](NC(=O)CCOCCOCCOCCOCCOCCOCCOCCOCCOCCOCCOCCN=[N+]=[N-])C(C)C)cc1F)CC3 [Example 23, 1-azido-N-((S)-1-(((S)-1-((4-((((1S,9S)-9-ethyl-5-fluoro-9-hydroxy-4-methyl-10,13-dioxo-2,3,9,10,13,15-hexahydro-1H,12H-benzo[de]pyrano[3′,4′:6,7]indolizino[1,2-b]quinolin-1-yl)amino)methyl)-3,5-difluorophenyl)amino)-1-oxo-5-ureidopentan-2-yl)amino)-3-methyl-1-oxobutan-2-yl)-3,6,9,12,15,18,21,24,27,30,33-undecaoxahexatriacontan-36-amid] | + (‘+’ indicates 5-25% release)
